One substance from article PMC4786781 can be followed below.

Data set [1] has as its target T1, Spo0J R82A R82A (Bacillus subtilis) (UniProt P26497).
T1 sequence: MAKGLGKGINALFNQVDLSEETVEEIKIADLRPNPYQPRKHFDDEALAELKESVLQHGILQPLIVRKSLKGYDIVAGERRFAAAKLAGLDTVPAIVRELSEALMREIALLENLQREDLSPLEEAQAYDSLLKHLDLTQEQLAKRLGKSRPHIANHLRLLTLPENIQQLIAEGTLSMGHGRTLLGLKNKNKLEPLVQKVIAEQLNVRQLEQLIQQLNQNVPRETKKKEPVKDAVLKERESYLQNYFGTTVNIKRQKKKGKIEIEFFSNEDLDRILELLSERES
In words: single-molecule PIFE kinetics, koff/kon. The conditions noted are these: 150 mM NaCl, kon 2.1±0.2e6 M-1 s-1, koff 0.16±0.01 s-1, Cy3-dUTP randomly incorporated, about 1 per kb, PIFE: 20 mM Tris pH 7.5, 100 ug/ml BSA, 100 mM NaCl (150 mM for Spo0J R82A Kd), flow 100 ul/min, BLItz: 20 mM Tris pH 7.5, 150 mM NaCl, 0.02% ….

A further data set concerns HBsu (Bacillus subtilis). Put plainly: single-molecule PIFE and DNA length, two-state model. Particulars: Cy3-dUTP randomly incorporated, about 1 per kb, PIFE: 20 mM Tris pH 7.5, 100 ug/ml BSA, 100 mM NaCl (150 mM for Spo0J R82A Kd), flow 100 ul/min, BLItz: 20 mM Tris pH 7.5, 150 mM NaCl, 0.02% ….
The target of data set [2] is T1, Spo0J R82A R82A (Bacillus subtilis). In words: single-molecule PIFE, steady state, Hill fit (n=0.8±0.2). Particulars: 150 mM NaCl, apparent Kd, Cy3-dUTP randomly incorporated, about 1 per kb, PIFE: 20 mM Tris pH 7.5, 100 ug/ml BSA, 100 mM NaCl (150 mM for Spo0J R82A Kd), flow 100 ul/min, BLItz: 20 mM Tris pH 7.5, 150 mM NaCl, 0.02% ….

For 20-kb Cy3-labelled DNA, the Kd in data set [1] is 76.2 nM; with HBsu (Bacillus subtilis) (K1, high-affinity bending mode, first dimer), 13 nM; with HBsu (Bacillus subtilis) (K2, low-affinity filament mode, second dimer) it was 390 nM; in data set [2], 60.5 nM.
